According to article PMC10636607 (Cell Reports, 2023):

Key:
[1] = biological target: biotinylated influenza hemagglutinin (HA) from H1N1 A/California/07/2009 (Influenza A virus A/California/07/2009 …, UniProt C3W5X2, strain, biotinylated); assay: BLI; conditions: both partners purified
[2] = biological target: T1, biotinylated C-terminal αTSR domain of P. falciparum circumsporozoite protein (P. falciparum, UniProt Q7K740); assay: BLI; conditions: both partners purified
T1 construct: also called P. falciparum CSP
T1 sequence (Q7K740 310-375): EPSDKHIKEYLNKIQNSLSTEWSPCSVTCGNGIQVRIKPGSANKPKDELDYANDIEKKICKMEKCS

B1: 5J8 Fab (WT) (Fab, V domains shown)
VH: EVQLVESGPGLVKPSDILSLTCAVSGYSISSNYYWGWIRQPPGKGLEWIGSIYHSGSTYYKPSLESRLGISVDTSKNQFSLKLSFVSAADTAVYYCARHVRSGYPDTAYYFDKWGQGTLVTVSS
VL: SYVLTQPPSVSVAPGETARISCGGNNIGTKVLHWYQQTPGQAPVLVVYDDSDRPSGIPERFSGSNSGNTATLTISRVEVGDEADYYCQVWDISTDQAVFGGGTKLTVL
notes: source: ExpiCHO cells, transiently co-transfected, purified (CaptureSelect CH1-XL)
- binding result [1]: binds

B2: Fab234 (WT) (Fab, V domains shown)
VH: EVQLVESGGGLVKPGGSLRLSCAASGFNFSTHIMNWVRQAPGKGLEWVSSISSSGTYIYYADSMKGRFTISRDNPKNSLYLQMNSLRAEDTAVYYCARARGFIQFHYYMDVWGKGTTVAVSS
VL: SYVLTQPPSVSVAPGKTARITCGGNNIGSKSVHWHQQRPGQAPVLVVYDDKIRPSGIPERFSGSNSGNTATLIISRVEAGDEADYYCQVWHSSSDPVVFGGGTKLTVL
- binding result [2]: binds
